Laboratory results as given in PMC3555993, “Structural and Functional Analysis of the DEAF-1 and BS69 MYND Domains” (PLoS ONE, 2013).

B1: NCoR corepressor peptide (residues 1031–1040 of NCoR) (peptide)
peptide: RPPPPLIPSS
notes: nuclear receptor corepressor (NCoR), residues 1031-1040; Unlabelled peptide; also called NCoR peptide
B2: SMRT corepressor peptide (residues 1111–1120 of SMRT) (peptide)
peptide: SNPPPLISSA
notes: silencing mediator of retinoid and thyroid receptor (SMRT), residues 1111-1120; Unlabelled peptide; also called SMRT peptide
B3: human DEAF-1 MYND domain (residues 501–544) (domain or fragment)
chain: GAMEQSCVNCGREAMSECTGCHKVNYCSTFCQRKDWKDHQHICGQSA
notes: N-terminal insertion of three amino acids GAM; DEAF-1, human, MYND domain, residues 501-544; 15N- or 15N/13C-labelled for NMR; also called short construct; source: E. coli BL21(DE3), purified (Ni-NTA, TEV cleavage, second Ni column, Superdex 75); not shown: poly-histidine tag, N-terminal, cleaved; thioredoxin, N-terminal, cleaved

How the values were obtained:
[1] = target: B3; assay: NMR titration; 1 mM 15N-labeled DEAF-1 MYND titrated with unlabeled peptide (SMRT up to 9-fold, NCoR up to 5-fold molar excess); chemical shift perturbations fitted to a binding isotherm; fast exchange; settings: both partners purified
[2] = target: the molecule itself; assay: AUC; sedimentation velocity, concentration-dependent; continuous sedimentation distribution at 86 µM DEAF-1 MYND; fitted to a self-association model; dimer to monomers

Row | Binder | Kd [1] | Kd [2] | stoichiometry N [2]
1 | B1 | 3.08 ± 0.12 mM | – | –
2 | B2 | 5.3 ± 0.54 mM | – | –
3 | B3 | – | 0.0005 ± 0.0001 mM | 2
